This note sets out measurements from patent publication US20150174237A1 (HENRY M JACKSON FOUNDATION FOR THE ADVANCEMENT OF MILITARY …, published 2015).

The assay addresses T1, mouse B cell CD21 (on mouse B cells) (mouse, UniProt P19070 12-1025).
T1 construct: whole, on cells
T1 sequence: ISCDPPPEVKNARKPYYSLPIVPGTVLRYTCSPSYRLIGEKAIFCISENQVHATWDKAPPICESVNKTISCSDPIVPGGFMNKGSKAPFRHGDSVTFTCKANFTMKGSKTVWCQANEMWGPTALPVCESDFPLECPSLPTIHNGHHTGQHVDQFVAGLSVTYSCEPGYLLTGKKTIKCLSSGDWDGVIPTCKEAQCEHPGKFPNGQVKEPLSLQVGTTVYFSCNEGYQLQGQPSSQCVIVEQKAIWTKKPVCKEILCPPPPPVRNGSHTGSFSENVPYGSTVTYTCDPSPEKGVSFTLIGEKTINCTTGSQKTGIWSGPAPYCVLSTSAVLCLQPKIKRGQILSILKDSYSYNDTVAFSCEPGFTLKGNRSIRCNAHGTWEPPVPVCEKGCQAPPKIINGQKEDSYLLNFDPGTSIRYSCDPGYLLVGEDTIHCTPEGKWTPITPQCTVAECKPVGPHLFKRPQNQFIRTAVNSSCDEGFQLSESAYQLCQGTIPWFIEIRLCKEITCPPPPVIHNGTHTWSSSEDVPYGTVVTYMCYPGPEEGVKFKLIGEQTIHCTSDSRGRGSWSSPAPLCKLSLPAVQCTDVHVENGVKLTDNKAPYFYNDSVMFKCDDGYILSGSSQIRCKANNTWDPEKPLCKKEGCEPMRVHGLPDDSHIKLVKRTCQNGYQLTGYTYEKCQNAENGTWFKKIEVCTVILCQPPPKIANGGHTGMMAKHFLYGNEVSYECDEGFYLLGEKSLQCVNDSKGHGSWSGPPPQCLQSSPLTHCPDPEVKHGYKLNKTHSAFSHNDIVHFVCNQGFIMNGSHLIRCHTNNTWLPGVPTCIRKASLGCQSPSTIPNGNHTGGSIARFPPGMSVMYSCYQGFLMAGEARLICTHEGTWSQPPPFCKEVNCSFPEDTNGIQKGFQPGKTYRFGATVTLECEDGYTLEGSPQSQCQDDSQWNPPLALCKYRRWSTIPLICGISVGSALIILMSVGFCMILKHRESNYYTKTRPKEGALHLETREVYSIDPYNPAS
Briefly: not described (own observation on mouse B cells).

B1: monomeric gp350 (truncated EBV gp350, amino acids 1-470, with His6 tag) (ligand)
chain: MEAALLVCQYTIQSLIHLTGEDPGFFNVEIPEFPFYPTCNVCTADVNVTINFDVGGKKHQLDLDFGQLTPHTKAVYQPRGAFGGSENATNLFLLELLGAGELALTMRSKKLPINVTTGEEQQVSLESVDVYFQDVFGTMWCHHAEMQNPVYLIPETVPYIKWDNCNSTNITAVVRAQGLDVTLPLSLPTSAQDSNFSVKTEMLGNEIDIECIMEDGEISQVLPGDNKFNITCSGYESHVPSGGILTSTSPVATPIPGTGYAYSLRLTPRPVSRFLGNNSILYVFYSGNGPKASGGDYCIQSNIVFSDEIPASQDMPTNTTDITYVGDNATYSVPMVTSEDANSPNVTVTAFWAWPNNTETDFKCKWTLTSGTPSGCENISGAFASNRTFDITVSGLGTAPKTLIITRTATNATTTTHKVIFSKAPESTTTSPTLNTTGFADPNTTTGLPSSTHVPTNLTAPASTGPTVSTHHHHHH
B1: the binding result was “no binding”.
